Series [1] deals with all three BADCs (recombinant BADC1, BADC2, BADC3).
Series [2] addresses α-carboxyltransferase (α-CT) subunit of hetACCase, AT2G38040, Arabidopsis thaliana (Arabidopsis thaliana) (UniProt Q9LD43). Briefly: co-IP from A. thaliana chloroplast lysate with anti-α-CT antibody, LC-MS/MS, n=7.
Series [3] has as its target BCCP2 (AT5G15530), biotin carboxyl carrier protein isoform 2, Arabidopsis thaliana (Arabidopsis thaliana) (UniProt Q9LLC1). Briefly: co-IP from A. thaliana chloroplast lysate with anti-BCCP2 antibody, LC-MS/MS, n=7.
Series [4] concerns the molecule itself. In words: intact mass analysis and non-reducing SDS-PAGE of purified recombinant protein.
Series [5] deals with T1, heteromeric acetyl-coenzyme A carboxylase (hetACCase) of Arabidopsis thaliana (Arabidopsis thaliana).
T1 chain 1: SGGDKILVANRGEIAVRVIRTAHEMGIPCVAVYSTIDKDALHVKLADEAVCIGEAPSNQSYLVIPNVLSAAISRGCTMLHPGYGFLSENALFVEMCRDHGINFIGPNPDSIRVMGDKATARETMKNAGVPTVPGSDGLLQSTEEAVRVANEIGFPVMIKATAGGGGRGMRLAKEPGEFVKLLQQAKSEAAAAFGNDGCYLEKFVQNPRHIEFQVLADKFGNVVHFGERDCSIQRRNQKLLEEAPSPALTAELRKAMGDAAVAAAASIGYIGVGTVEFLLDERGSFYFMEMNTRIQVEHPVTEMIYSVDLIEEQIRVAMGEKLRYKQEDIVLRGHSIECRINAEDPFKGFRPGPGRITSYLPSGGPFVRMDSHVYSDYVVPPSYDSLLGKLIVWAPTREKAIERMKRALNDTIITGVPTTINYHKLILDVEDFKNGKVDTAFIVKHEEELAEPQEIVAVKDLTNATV
T1 chain 2: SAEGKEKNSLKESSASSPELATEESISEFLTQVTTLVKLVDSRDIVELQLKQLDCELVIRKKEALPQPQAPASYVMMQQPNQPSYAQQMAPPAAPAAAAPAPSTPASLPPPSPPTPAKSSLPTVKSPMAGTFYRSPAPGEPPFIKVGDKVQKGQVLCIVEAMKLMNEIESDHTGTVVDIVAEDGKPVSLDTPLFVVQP
T1 chain 3: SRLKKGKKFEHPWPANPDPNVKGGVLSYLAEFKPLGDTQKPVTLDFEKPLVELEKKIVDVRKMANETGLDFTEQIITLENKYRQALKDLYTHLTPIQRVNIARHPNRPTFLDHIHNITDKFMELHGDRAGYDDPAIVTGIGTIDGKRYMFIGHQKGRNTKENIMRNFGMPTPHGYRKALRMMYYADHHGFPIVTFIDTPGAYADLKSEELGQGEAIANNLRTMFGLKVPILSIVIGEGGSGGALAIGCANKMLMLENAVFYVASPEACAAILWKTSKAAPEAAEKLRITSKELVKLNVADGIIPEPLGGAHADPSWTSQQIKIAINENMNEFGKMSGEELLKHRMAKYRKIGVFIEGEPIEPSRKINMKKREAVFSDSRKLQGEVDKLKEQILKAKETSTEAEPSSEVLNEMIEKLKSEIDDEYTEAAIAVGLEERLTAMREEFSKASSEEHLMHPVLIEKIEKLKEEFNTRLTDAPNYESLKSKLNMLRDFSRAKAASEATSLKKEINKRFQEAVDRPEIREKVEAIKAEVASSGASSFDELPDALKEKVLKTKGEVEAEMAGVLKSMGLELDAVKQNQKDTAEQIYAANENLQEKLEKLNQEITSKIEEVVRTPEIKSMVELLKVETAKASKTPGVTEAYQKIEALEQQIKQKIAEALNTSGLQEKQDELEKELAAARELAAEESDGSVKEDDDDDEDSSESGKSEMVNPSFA
T1 chain 4: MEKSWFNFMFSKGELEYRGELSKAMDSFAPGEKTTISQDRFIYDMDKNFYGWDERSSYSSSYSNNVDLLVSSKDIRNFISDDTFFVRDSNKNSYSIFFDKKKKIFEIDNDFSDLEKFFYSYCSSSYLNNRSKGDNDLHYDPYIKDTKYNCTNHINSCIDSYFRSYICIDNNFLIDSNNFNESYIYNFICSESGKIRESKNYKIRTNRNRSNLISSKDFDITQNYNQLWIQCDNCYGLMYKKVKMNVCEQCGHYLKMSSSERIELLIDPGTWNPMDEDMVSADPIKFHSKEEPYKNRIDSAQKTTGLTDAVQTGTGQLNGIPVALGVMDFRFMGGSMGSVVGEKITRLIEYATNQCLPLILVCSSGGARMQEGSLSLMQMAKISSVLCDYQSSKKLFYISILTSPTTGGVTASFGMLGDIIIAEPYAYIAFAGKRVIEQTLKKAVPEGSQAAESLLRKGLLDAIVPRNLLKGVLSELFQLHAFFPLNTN
Briefly: inhibition of ACCase activity in 20-day-old A. thaliana leaf extracts by increasing concentrations of recombinant BADC1.
Method: ACCase activity was monitored in vitro in 20-day-old A. thaliana leaf extracts with increasing concentrations of recombinant BADC1. Specific activity was determined for each experiment and 0 μM controls were normalized to 1. Specific activity values for controls ranged from 0.84-2.00 nmol/min/mg. Each data point represented the average of four biological replicates, with each biological replicate comprised of four light-adapted leaves.

For “heteromeric acetyl-coenzyme A carboxylase (hetACCase) of Arabidopsis thaliana”, the “hetACCase activity in ten-day-old A. thaliana silique extracts (H14CO3 incorporation), 10 µM recombinant protein” value in series [1] is listed as “all three BADCs inhibited hetACCase activity by 25 to 37%”.

B1: BADC2 (AT1G52670), Single hybrid motif protein, Arabidopsis thaliana (other)
chain: TTLRSVKAIQLSTVPPAETEAIADVKDSDETKSTVVNTHLMPKSSEVEALISEITDSSSIAEFELKLGGFRLYVARKLTDESSPPPQQIQPVVAASATPEGVHTNGSATSSSLAITKTSSSSADRPQTLANKAADQGLVILQSPTVGYFRRSKTIKGKRTPTICKEKDIVKEGQVLCYIEQLGGQIPVESDVSGEIVKILREDGEPVGYNDALITVLPSFPGIKKLQ
notes: His-tagged or untagged from E. coli, bait/prey fusion in yeast two-hybrid, native protein in co-IPs; also called AtBADC2
For B1, the replicates (of seven) of the co-IP in which the protein was present in series [2] was 2 replicates; in series [3], 6 replicates. Besides, in series [4], the binding result is listed as “no binding”.

B2: BADC1 (AT3G56130), biotin/lipoyl attachment domain-containing protein, Arabidopsis thaliana (other)
chain: AKAAKSSTTTISDGSSDASVSDGKKTVRRITFPKEVEALVHEMCDETEVAVLQLKVGDFEMNLKRKIGAATNPIPVADISPTVAPPIPSEPMNKSASSAPSPSQAKPSSEKVSPFKNTSYGKPAKLAALEASGSTNYVLVTSPAVGKFQRSRTVKGKKQSPSCKEGDAIKEGQVIGYLHQLGTELPVTSDVAGEVLKLLSDDGDSVGYGDPLVAVLPSFHDINIQ
notes: Recombinant and yeast two-hybrid constructs were made without the transit peptide predicted by TargetP; also called AtBADC1
For the molecule B2, the replicates (of seven) of the co-IP in which the protein was present is 1 replicates in series [2] and 7 replicates in series [3]. Also, the Ki (commonly the dissociation constant of the complex between target and ligand, obtained from inhibition or displacement) in series [5] was approximately 4.3 µM.

The record behind these values is patent publication US20230416760A1 (CURATORS OF THE UNIVERSITY OF MISSOURI, published 2023).
